From publication PMC10086585

Biological target: recombinant human netrin‐1 (R&D), on HIS1K biosensors (human) (UniProt O95631)
Experiment: BLI; netrin-1 on HIS1K biosensors; m-Laminin-I at 3.12-100 nM; 30°C, 1,000 rpm; PBS, 0.02% Tween-20, 0.1% BSA; 5 min association, 5 min dissociation

Kd: 29.5 nM
Substance: mouse laminin‐I (complex)
